Data as given in patent publication US20240150489A1.

What was measured:
[1] = target: CD38 on Raji-CD47KO cells (human) (UniProt P28907); assay: flow cytometry dot plot, Raji-CD47KO cells, mix of saturating Darzalex-AF647 and BEAT 38/47-60-AF488; other quadrants printed Q1 0.070, Q3 0.21, Q4 0.035
[2] = target: CD38 on Raji-CD47KO cells (human) (UniProt P28907); assay: flow cytometry dot plot, Raji-CD47KO cells, saturating Darzalex-AF647 alone; other quadrants printed Q1 0, Q2 0, Q4 0.23

percent of cells in quadrant Q2 (AF488 and AF647 double positive) [1]: 99.7%
percent of cells in quadrant Q3 (AF647 positive, AF488 negative) [2]: 99.8%
Substance: Darzalex (antibody)
